Holding throughout (test): EMSA
Data set [1] has as its target T1, MEX-5 TZF domain (Caenorhabditis elegans, UniProt Q9XUB2 236-350).
T1 sequence: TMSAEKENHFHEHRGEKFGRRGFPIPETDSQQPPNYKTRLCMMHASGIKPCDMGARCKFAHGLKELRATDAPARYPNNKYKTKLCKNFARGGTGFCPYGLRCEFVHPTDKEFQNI

The target of data set [2] is POS-1 TZF domain (Caenorhabditis elegans, UniProt G5EF15 80-180).
In data set [3] the target is POS-1(ZFmut) TZF domain (Caenorhabditis elegans, UniProt G5EF15 80-180, F121N;F164N).
Sequence of POS-1(ZFmut) TZF domain (G5EF15 80-180 F121N/F164N): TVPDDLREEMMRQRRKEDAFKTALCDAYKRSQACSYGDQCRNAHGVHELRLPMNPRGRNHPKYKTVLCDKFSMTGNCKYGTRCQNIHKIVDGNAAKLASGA

Sequence of POS-1 TZF domain (G5EF15 80-180): as the sequence (G5EF15 80-180 F121N/F164N) above, with N42F, N85F counted along it

For orientation: Kd means the equilibrium constant for the complex coming apart. GUGAUUAUUUAUUAUUUAUUUAUUAUUUAUUUAUUAG (ssRNA) [TNF-ARE] yielded a Kd in data set [1] of 11 ± 2 nM.

As to UUUUUCUUAUUCUAGACUAAUAUUGUAAGCU (ssRNA) [SCR+ (glp-1 3'UTR fragment)], the Kd in data set [2] is 26.9 ± 1.8 nM; in data set [3], > 300 nM.

The record behind these values is publication PMC5763555.
